Measured values published in US10857209B2, “Lysosomal acid lipase and PPAR gamma ligands as immune therapies for cancer treatment” (Indiana University Research and Technology Corporation, priority 2016, dated 2020).

Legend:
[1] = tested on: Ly6G+CD11b+ cells; experiment: Mitochondrial membrane potential (JC-1) in Ly6G+CD11b+ cells by flow cytometry; assay type: cell-based, mouse; conditions: lal−/− Ly6G+CD11b+ cells; 20 μmol/L, 48 hours; vs ethanol
Method: The reactive oxygen species (ROS) level and mitochondrial membrane potential in MDSCs was measured by flow cytometry. Briefly, bone marrow cells were first treated with or without 20 μmol/L 9-HODE or ethanol for 2 days. For ROS level detection, cells were harvested, washed, and stained with 2′,7′-dichlorofluorescein diacetate (2 μmol/L, Invitrogen), allophycocyanin cy7-conjugated anti-Ly6G Ab, and phycoerythrin cy7-conjugated anti-CD 11b Ab (eBioscience) at 37° C. for 15 minutes. After PBS wash, the ROS level in Ly6G^+CD11b^+ cells was analyzed using a LSRII machine (BD Biosciences).
For mitochondrial membrane potential measurement, cells were stained with the fluorescent dye JC-1 (2 μmol/L, Molecular Probes, Eugene, Oreg., USA), allophycocyanin cy7-conjugated anti-Ly6G antibody, and phycoerythrin cy7-conjugated anti-CD 11b antibody (eBioscience) at 37° C. for 15 minutes, and then analyzed for phycoerythrin (JC-1 red) and fluorescein isothiocyanate (JC-1 green) fluorescent cells in Ly6G^+CD11b^+ cells by flow cytometry. Cells treated with 50 μmol/L carbonyl cyanide 3-chlorophenylhydrazone for 5 minutes were served as a fluorescein isothiocyanate-positive control.

[2] = tested on: B16 melanoma cells; experiment: Transwell assay, effect of MDSC-secreted cytokines on melanoma cell proliferation; assay type: cell-based, mouse; conditions: pre-treated lal−/− Ly6G+ cells in upper chamber; 72 hours
Method: To observe the effect of MDSCs-secreted cytokines on melanoma cell proliferation, transwell assay was performed with 0.4-μm-pore 6.5-mm diameter Transwell plates (Corning) to separate MDSCs and B16 melanoma cells. One million pre-treated MDSCs in 200 μL media were seeded into the upper chamber of the plates, while 2×10^4 melanoma cells in 500 μL media were placed in the lower chamber. After 72 hours' culture, the transwells were removed, and the number of B16 melanoma cells in the lower chamber was counted.

[3] = tested on: Lewis lung cancer (LLC) cells; experiment: In vitro co-culture of pre-treated MDSCs and LLC cells; assay type: cell-based, mouse; conditions: lal−/− Ly6G+ cells pre-treated 20 μmol/L 24 hours; 72 hours co-culture
[4] = tested on: B16 melanoma cells; experiment: Mouse metastasis model, pre-treated MDSCs co-injected intravenously with B16 melanoma cells; assay type: in vivo; conditions: two weeks
Method: The tumor growth and metastasis model were described in Zhao et al., Oncogene. 2015; 34:1938-48. MDSCs and B16 melanoma cells were collected separately. A pilot study was performed to determine the best ratio between MDSCs and B16 melanoma cells. To test the tumor growth potential, 6×10^5 pre-treated MDSCs and 2×10^5 B16 melanoma cells were mixed, centrifuged and re-suspended in 100 μL PBS, and then injected subcutaneously into the flank region of 3-month old recipient lal^+/+ mice. Tumor volume (length×width^2×π/6) was monitored every week for 4 weeks. To test the metastasis potential, 2×10^6 pre-treated MDSCs and 5×10^5 B16 melanoma cells were mixed and incubated at 37° C., 5% CO2 for 30 minutes. After the incubation, cells were centrifuged, re-suspended, and injected intravenously into 3-month old lal^+/+ mice. Two weeks after the injection, the mice were sacrificed and the lungs were inflated with 4% paraformaldehyde for examination of metastasis.
The harvested lungs were fixed with 4% paraformaldehyde in PBS at 4° C. for overnight. After fixation and embedding in paraffin, tissue sections were cut to 5 μm thick. Hematoxylin and eosin (H&E) staining and immunohistochemical (IHC) staining with anti-Ki67 antibody were performed by the Histological Core Facility, Department of Pathology and Laboratory Medicine, Indiana University. Images were taken by Olympus microscopy image system (Olympus, Tokyo, Japan).

[5] = tested on: bone marrow cells; experiment: Transwell assay of bone marrow cell transendothelial migration towards BALF; assay type: cell-based, mouse; conditions: BALF from doxycycline-treated CCSP-Tg/KO mice in lower chamber; 4 hours
Method: Transwell assay was used to determine cell transendothelial migration. ECs were added to the upper chamber of 24-well 8.0-μm-pore Transwell plates (Corning, Corning, N.Y., USA), and incubated at 37° C., 5% CO2 for 48 hours to form an EC monolayer. The supernatant was then removed, and CELLTRACKER™ Green 5-Chloromethylfluorescein Diacetate (CMFDA) (Invitrogen, Grand Island, N.Y., USA)-labeled bone marrow cells (1×10^4 cells in 200 μL media) were added to the upper well. After 4 hours, transendothelial migration of bone marrow cells was determined by counting their numbers in the lower chamber under 5 random microscopic fields.

[6] = tested on: cytokines and chemokines; experiment: Cytokines and chemokines in BALF and plasma (ELISA) and lung (RT-PCR) of CCSP-Tg/KO mice; assay type: in vivo, mouse
Method: BALF was collected by 1 mL PBS. The expression levels of IL-6, GM-CSF, MCP-1 and TNFα in the BALF and plasma were measured using ELISA kits (BD Biosciences, San Jose, Calif.) according to the manufacturer's instructions.
Total RNAs were purified from lungs of lal^+/+, lal^−/− and CCSP-Tg/KO triple mice using RNeasy Mini Kits according to the manufacturer's instruction (Qiagen, Valencia, Calif., USA). Quantitative (q)RT-PCR was performed as described previously (Wu et al., Blood. 2012; 119:115-26). Analysis was performed by the 2^−ΔΔCT method. Primers of mIL-6, mIL-1β, mIL-10, mGM-CSF, mM-CSF, mTNF-α, mMCP-1, mCCL5 and GAPDH were used for real-time PCR.

[7] = tested on: Ly6G+CD11b+ cells; experiment: Flow cytometry of Ly6G+CD11b+ cells in CCSP-Tg/KO mice; assay type: in vivo, mouse
Method: For immune cell profile analysis, single cells from the lung, bone marrow, spleen and blood of lal^+/+, lal^−/− and CCSP-Tg/KO triple mice were prepared. Cells were labeled with isotype control or surface-specific primary antibodies at 4° C. for 15 minutes, and then washed and ready for flow cytometry analysis. Anti-CD11b (M1/70) PE-Cyanine7 and anti-Ly6G (RB6-8c5) APC-eFluor® 780 were purchased from eBiosciences (San Diego, Calif., USA). For characterization of tissue-specific expression of the hLAL transgene, single cells from the lungs of lal^+/+, lal^−/− and CCSP-Tg/KO triple mice were prepared and stained. Surfactant protein C (SP-C, AT II epithelial cell marker) Ab and Flag Ab were purchased from Santa Cruz Biotechnology (Dallas, Tex., USA) and Sigma-Aldrich (St. Louis, Mo., USA), respectively. In gated SP-C^+ cells, the number of the Flag^+ cells were analyzed by flow cytometry and calculated based on M1, which is defined by isotype control. Whole spleen cells were used as a control, in which the number of the Flag^+ cells was analyzed. For flow cytometry analysis, ≥30,000 cells were acquired and scored using a LSRII machine (BD Biosciences, San Jose, Calif., USA). Data were processed using the CellQuest software program (BD Biosciences).

[8] = pre-treated lal−/− Ly6G+ cells + B16 i.v.
[9] = doxycycline-treated CCSP-Tg/KO mice
[10] = doxycycline-treated vs untreated CCSP-Tg/KO mice

For 9-hydroxyoctadecadienoic acid [9-HODE], the mitochondrial membrane potential [1] was “partially recovered”, the “number of B16 melanoma cells in lower chamber” value [2] was “significantly less” and the “proliferation of LLC cells upon co-culture” value [3] was “reduced proliferation of LLC cells”. For the same molecule, the “B16 melanoma colonization in the lung” value ([4]; pre-treated lal+/+ Ly6G+ cells + B16 i.v.) was “did not affect B16 melanoma colonization in the lung”, the “B16 melanoma colonies in the lungs” value ([4]; pre-treated lal−/− Ly6G+ cells + B16 i.v. into lal+/+ mice, vs ethanol) was “less B16 melanoma colonies” and the “Ki67 positive cells in lung sections (IHC staining)” value [4, 8] was “less Ki67 positive cells”. The “neoplastic cells in lung sections (H&E staining)” value [4, 8] was “less neoplastic cells”.

B1: hLAL: human lysosomal acid lipase expressed from a doxycycline-controlled tissue-specific transgene in lal−/− mice; never administered as a protein (protein)
chain: GPKPVVFLQHGLLADSSNWVTNLANSSLGFILADAGFDVWMGNSRGNTWSRKHKTLSVSQDEFWAFSYDEMAKYDLPASINFILNKTGQEQVYYVGHSQGTTIGFIAFSQIPELAKRIKMFFALGPVASVAFCTSPMAKLGRLPDHLIKDLFGDKEFLPQSAFLKWLGTHVCTHVILKELCGNLCFLLCGFNERNLNMSRVDVYTTHSPAGTSVQNMLHWSQAVKFQKFQAFDWGSSAKNYFHYNQSYPPTYNVKDMLVPTAVWSGGHDWLADVYDVNILLTQITNLVFHESIPEWEHLDFIWGLDAPWRLYNKIINLMRKYQ
modifications: left off: small tags and cut ends
notes: human lysosomal acid lipase expressed from a doxycycline-controlled tissue-specific transgene in lal−/− mice; never administered as a protein
For B1, the “bone marrow cell transendothelial migration” value [5] was “decreased bone marrow cell transendothelial migration”, the “lung GM-CSF mRNA level” value [6, 9] was “remained unchanged” and the “lung mRNA levels of IL-6, MCP-1, TNFα, CCL5, IL-10 and IL-1β” value [6, 9] was “significantly down-regulated”. For the same molecule, the “IL-6, GM-CSF, MCP-1 and TNFα concentrations in BALF (ELISA)” value [6, 10] was “significantly decreased”, the “IL-6, GM-CSF, MCP-1 and TNFα levels in the plasma” value [6, 10] was “similar” and the “percentage of Ly6G+CD11b+ cells in the lung” value ([7]; doxycycline-treated (hLAL on) vs untreated CCSP-Tg/KO mice) was “significantly decreased”. For the same molecule, the “Ly6G+CD11b+ cell accumulation in the blood” value [7, 9] was “reduced” and the “Ly6G+CD11b+ cells in the spleen and bone marrow” value [7, 9] was “no reversing effect”.
